Here are results for two molecules from publication PMC6531784, “Discovering metabolic disease gene interactions by correlated effects on cellular morphology” (Molecular Metabolism, 2019).

Where “and” joins values, the source holds several entries; their conditions need not be identical. Equal entries are not always repeated.

One assay deals with T1, seipin-Myc (UniProt Q96G97 1-398).
T1 construct: seipin (product of BSCL2) in the pcDNA3.1 MycHis vector; also called seipin dodecamers; not shown: Myc, C-terminal, kept; copies: 12
T1 sequence (looked up): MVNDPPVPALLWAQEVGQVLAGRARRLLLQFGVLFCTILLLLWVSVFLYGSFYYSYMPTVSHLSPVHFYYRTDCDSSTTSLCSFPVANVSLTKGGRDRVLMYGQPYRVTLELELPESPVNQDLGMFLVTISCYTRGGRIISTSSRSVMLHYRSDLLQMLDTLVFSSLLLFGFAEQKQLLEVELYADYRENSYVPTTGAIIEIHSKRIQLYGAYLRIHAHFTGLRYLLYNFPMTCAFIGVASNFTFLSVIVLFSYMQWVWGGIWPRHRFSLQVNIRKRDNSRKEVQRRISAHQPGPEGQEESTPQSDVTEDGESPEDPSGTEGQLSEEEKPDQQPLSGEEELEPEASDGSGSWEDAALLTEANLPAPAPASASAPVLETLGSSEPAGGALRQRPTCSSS
Kind of assay: atomic force microscopy; proteins co-expressed in tsA 201 cells, isolated by anti-Myc immunoaffinity chromatography, imaged in tapping mode in air; particle volumes from heights and radii. The following applies: partners not purified.

A further assay deals with T2, seipin-Myc, Q96G97.
T2 chain: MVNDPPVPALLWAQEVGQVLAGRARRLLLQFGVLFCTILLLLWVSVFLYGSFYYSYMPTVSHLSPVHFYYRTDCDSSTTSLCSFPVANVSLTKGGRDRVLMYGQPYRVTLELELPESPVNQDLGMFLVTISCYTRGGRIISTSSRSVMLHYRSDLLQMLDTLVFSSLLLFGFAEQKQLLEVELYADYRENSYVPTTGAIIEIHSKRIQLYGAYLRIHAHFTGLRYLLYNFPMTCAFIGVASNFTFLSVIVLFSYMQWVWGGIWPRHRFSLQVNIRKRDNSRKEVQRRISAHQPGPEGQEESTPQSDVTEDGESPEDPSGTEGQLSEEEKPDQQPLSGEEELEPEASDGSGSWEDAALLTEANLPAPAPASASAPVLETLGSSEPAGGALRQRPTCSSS
The assay is described as above. The following applies: remark: other sources report otherwise.

B1: FLAG-perilipin (in tsA 201 cells) (natural protein, UniProt O60240 1-522, looked up)
chain: MAVNKGLTLLDGDLPEQENVLQRVLQLPVVSGTCECFQKTYTSTKEAHPLVASVCNAYEKGVQSASSLAAWSMEPVVRRLSTQFTAANELACRGLDHLEEKIPALQYPPEKIASELKDTISTRLRSARNSISVPIASTSDKVLGAALAGCELAWGVARDTAEFAANTRAGRLASGGADLALGSIEKVVEYLLPPDKEESAPAPGHQQAQKSPKAKPSLLSRVGALTNTLSRYTVQTMARALEQGHTVAMWIPGVVPLSSLAQWGASVAMQAVSRRRSEVRVPWLHSLAAAQEEDHEDQTDTEGEDTEEEEELETEENKFSEVAALPGPRGLLGGVAHTLQKTLQTTISAVTWAPAAVLGMAGRVLHLTPAPAVSSTKGRAMSLSDALKGVTDNVVDTVVHYVPLPRLSLMEPESEFRDIDNPPAEVERREAERRASGAPSAGPEPAPRLAQPRRSLRSAQSPGAPPGPGLEDEVATPAAPRPGFPAVPREKPKRRVSDSFFRPSVMEPILGRTHYSQLRKKS
notes: perilipin (product of PLIN1) in the pCMV3xFLAG vector; Same construct as m7, other host cells
On to B1, for which the stoichiometry N (usually the number of molecules, sites or subunits per partner or assembly) with seipin-Myc is 1 perilipin per seipin dodecamer and 2 perilipin per seipin dodecamer.

B2: seipin-Myc, Q96G97 1-398 (natural protein)
chain: MVNDPPVPALLWAQEVGQVLAGRARRLLLQFGVLFCTILLLLWVSVFLYGSFYYSYMPTVSHLSPVHFYYRTDCDSSTTSLCSFPVANVSLTKGGRDRVLMYGQPYRVTLELELPESPVNQDLGMFLVTISCYTRGGRIISTSSRSVMLHYRSDLLQMLDTLVFSSLLLFGFAEQKQLLEVELYADYRENSYVPTTGAIIEIHSKRIQLYGAYLRIHAHFTGLRYLLYNFPMTCAFIGVASNFTFLSVIVLFSYMQWVWGGIWPRHRFSLQVNIRKRDNSRKEVQRRISAHQPGPEGQEESTPQSDVTEDGESPEDPSGTEGQLSEEEKPDQQPLSGEEELEPEASDGSGSWEDAALLTEANLPAPAPASASAPVLETLGSSEPAGGALRQRPTCSSS
In the assay with seipin-Myc, Q96G97, B2 came in with a stoichiometry N of 12.
